According to publication PMC2603577 (Journal of immunology (Baltimore, Md. : 1950), 2008):

Legend:
[1] = tested on: human MDM; test: Pulse-chase of fibrillar 125I-Aβ in MDM chased with recombinant cytokines; format: cell-based; settings: cytokines at final 10 ng/ml, chase 120 hrs, vs control MDM
[2] = tested on: human MDM
[3] = tested on: human microglia
[4] = tested on: IDE; test: Immunoblot of MDM lysates, IDE; format: cell-based, human; settings: cytokines 10 ng/ml each, 120 hrs, vs control
[5] = tested on: HSC70; test: Immunoblot of MDM lysates, HSC70; format: cell-based, human; settings: cytokines 10 ng/ml each, 120 hrs, vs control
[6] = tested on: HSP70; test: Immunoblot of MDM lysates, HSP70; format: cell-based, human; settings: cytokines 10 ng/ml each, 120 hrs, vs control
[7] = tested on: human microglia; test: Pulse-chase of fibrillar 125I-Aβ in microglia chased with recombinant cytokines; format: cell-based; settings: cytokines at final 10 ng/ml, chase 120 hrs, vs control

For IL-10: recombinant cytokine, the “effect on intracellular retention of fibrillar Aβ40” value (from here on “effect … of fibrillar Aβ40”) [1] was “significantly reduced” and the “effect on intracellular retention of fibrillar Aβ42” value (shortened to “effect … of fibrillar Aβ42”) [1] was “suppressed”.

For “Fibrillar Aβ42: iodinated synthetic Aβ42 peptide aggregated with stirring at 37°C for 3 days, precipitated fraction”, the “extracellular TCA-soluble fraction (degraded form) at saturation (% total count)” value [2] was about 40% and the “intracellular retention at saturation (% total count)” value [3] was about 42%.

With “Oligomeric Aβ40: 125I-Aβ40 incubated in PBS at 4°C for 24hs, supernatant fraction” the “extracellular TCA-soluble fraction (degraded form) at saturation (% total count)” value [2] was about 75%.

TNF-α was tested, and the “reduction of IDE expression (band intensity / β-actin)” value [4] was “no effect”, the “reduction of HSC70 expression (band intensity / β-actin)” value [5] was “no effect” and the “reduction of HSP70 expression (band intensity / β-actin)” value [6] was “no effect”.

IL-13: recombinant cytokine was tested, and the “effect … of fibrillar Aβ40” value [1] was “no effect”.

In the case of “Fibrillar Aβ40: iodinated synthetic Aβ40 peptide aggregated with stirring at 37°C for 3 days, precipitated fraction”, the “extracellular TCA-soluble fraction (degraded form) at saturation (% total count)” value [2] is reported as about 40%, the “intracellular retention at saturation (% total count)” value [2] is reported as “approximately 50%” and the “extracellular TCA-insoluble fraction at saturation (% total count)” value [3] is reported as about 30%. For the same molecule, the “extracellular TCA-soluble fraction at saturation (% total count)” value [3] was “approximately 10%” and the “intracellular retention at saturation (% total count)” value [3] was “approximately 60%”.

For “TGF-β1: recombinant cytokine transforming growth factor-β1”, the “effect … of fibrillar Aβ40” value [1] was “significantly reduced”.

With “IFN-γ: recombinant cytokine interferon-γ” the “reduction of IDE expression (band intensity / β-actin)” value [4] was “no effect”, the “reduction of HSC70 expression (band intensity / β-actin)” value [5] was “no effect” and the “reduction of HSP70 expression (band intensity / β-actin)” value [6] was “no effect”.

For “Oligomeric Aβ42: 125I-Aβ42 incubated in PBS at 4°C for 24hs, supernatant fraction”, the “extracellular TCA-soluble fraction (degraded form) at saturation (% total count)” value [2] was about 40%.

“IL-4: recombinant cytokine interleukin-4” was tested, and the “effect … of fibrillar Aβ40” value [1] was “significantly reduced” and the “effect … of fibrillar Aβ42” value [1] was “suppressed”.

B1: IFN-γ: recombinant cytokine interferon-γ (protein, UniProt P01579 24-161, looked up)
Interferon gamma: QDPYVKEAENLKKYFNAGHSDVADNGTLFLGILKNWKEESDRKIMQSQIVSFYFKLFKNFKDDQSIQKSVETIKEDMNVKFFNSNKKKRDDFEKLTNYSVTDLNVQRKAIHELIQVMAELSPAAKTGKRKRSQMLFRG
With B1 the “effect … of fibrillar Aβ40” value [1] was “significantly enhanced”, the “effect … of fibrillar Aβ42” value [1] was “significantly enhanced” and the “effect … of fibrillar Aβ40” value [7] was “significantly enhanced”. The “effect … of fibrillar Aβ42” value [7] was “enhanced”.
